We go through 1 molecule from PMC2173747 (The Journal of Cell Biology, 2003).

This assay deals with purified human gelsolin (human, UniProt P06396 28-782). Put plainly: ELISA.
Chain of purified human gelsolin (P06396 28-782): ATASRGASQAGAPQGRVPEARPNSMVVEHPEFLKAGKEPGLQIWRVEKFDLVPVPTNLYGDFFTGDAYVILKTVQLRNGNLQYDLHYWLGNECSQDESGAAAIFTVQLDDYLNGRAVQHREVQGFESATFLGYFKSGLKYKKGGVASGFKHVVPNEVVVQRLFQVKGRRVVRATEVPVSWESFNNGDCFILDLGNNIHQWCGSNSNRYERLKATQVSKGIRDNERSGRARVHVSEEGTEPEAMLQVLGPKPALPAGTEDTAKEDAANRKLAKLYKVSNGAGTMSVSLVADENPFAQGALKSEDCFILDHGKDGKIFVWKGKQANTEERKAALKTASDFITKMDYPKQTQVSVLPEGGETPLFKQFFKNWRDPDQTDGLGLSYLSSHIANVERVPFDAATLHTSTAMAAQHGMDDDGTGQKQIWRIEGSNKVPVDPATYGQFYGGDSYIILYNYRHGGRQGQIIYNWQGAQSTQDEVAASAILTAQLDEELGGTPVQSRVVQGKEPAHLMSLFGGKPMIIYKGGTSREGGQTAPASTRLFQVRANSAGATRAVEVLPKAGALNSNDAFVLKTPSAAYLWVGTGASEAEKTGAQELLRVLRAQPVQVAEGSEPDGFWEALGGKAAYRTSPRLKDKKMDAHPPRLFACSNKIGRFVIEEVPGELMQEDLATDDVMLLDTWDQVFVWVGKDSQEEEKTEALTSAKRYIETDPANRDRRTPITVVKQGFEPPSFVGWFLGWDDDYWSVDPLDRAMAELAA

B1: GST-PYK2Δ1–781 (domain or fragment)
chain: EEDFIQPSSREEAQQLWEAEKVKMRQILDKQQKQMVEDYQWLRQEEKSLDPMVYMNDKSPLTPEKEVGYLEFTGPPQKPPRLGAQSIQPTANLDRTDDLVYLNVMELVRAVLELKNELCQLPPEGYVVVVKNVGLTLRKLIGSVDDLLPSLPSSSRTEIEGTQKLLNKDLAELINKMRLAQQNAVTSLSEECKRQMLTASHTLAVDAKNLLDAVDQAKVLANLAHPPAE
Molecule B1 had a concentration for a half-maximal effect (EC50) of 30 ± 4 nM.
